Test results taken from US20170067069A1 (SYNTHETIC GENOMICS, published 2017).

T1: SKP1-8611 (Nannochloropsis Skp1 protein) (Nannochloropsis gaditana)
T1 construct: also called SKP-8611
T1 chain: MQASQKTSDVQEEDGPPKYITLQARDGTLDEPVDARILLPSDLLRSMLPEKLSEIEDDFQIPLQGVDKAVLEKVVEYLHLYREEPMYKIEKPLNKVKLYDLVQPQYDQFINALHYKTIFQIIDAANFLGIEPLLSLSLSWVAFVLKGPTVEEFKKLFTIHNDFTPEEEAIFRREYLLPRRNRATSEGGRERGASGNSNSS

T2: Skp1-7479 (Nannochloropsis Skp1 protein, genome locus Naga_100005 g56) (Nannochloropsis gaditana)
T2 construct: also called SKP-7479
T2 chain: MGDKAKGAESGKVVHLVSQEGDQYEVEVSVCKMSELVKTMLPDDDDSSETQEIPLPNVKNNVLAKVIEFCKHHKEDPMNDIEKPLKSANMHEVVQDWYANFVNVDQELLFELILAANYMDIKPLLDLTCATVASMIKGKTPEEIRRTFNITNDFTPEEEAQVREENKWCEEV

B1: SGT1 (suppressor of G2 allele of skp1), Nannochloropsis gaditana, genome locus Naga_100120 g12 (other)
chain: MEQAQLAFMDEDYATADELFSAYIATHPDDATALVSRAAVHLKLNQPSQALHDAEAAASLKSDFEVAWYRQGVAAFALEDFSRAKEAFMRGRALLGDRPEPQGRRYDVWLRKTTLELGEHDEQGMTVVAEGGRKELRQEEGAKGIEATVPRSQPSPTHPPSSAPAIPAGHVKFQFYQTTSYVTVTILYKGLREEDANVSVQPRHLKVSVGADGDVLFDRALFETVVPEESTSKIFATKIEVKLRKAMEGLTWPELCALSPGAAASVHTVSAPTPDSHATALPSLAQGPATAPSSKPLRPYASTKDWGAVEKEISKELESEKPEGDEALNTLFRDIYAKGSDETRRAMVKSFQTSGGTVLSTNWEEVGKKDYEKEEERKAPEGMEWRKWGV
notes: also called Nannochloropsis SGT1; gene 1852
B2: CRD1-117 (fragment of CHORD-3266 protein, amino acids 1-117) (other)
chain: MKLYVHYEEAGQDEKALTLKLTLPKSWAEQPLLQVLELFIESYNKKKTGLPPLDKDFVHMEKAGGVILPVGNIVSDMLSDRDDLYIRSGPGPARGKIAHLSSPPNAHASSESSTGLL
notes: Used as bait in the yeast two-hybrid screen, cloned into bait vector pGBKT7 (Clontech); also called CHORD domain fragment 1-117

What was measured:
[1] = target: T1, SKP1-8611 (Nannochloropsis Skp1 protein); assay: direct yeast two-hybrid assay
Excerpt: (§1) In order to determine whether SGT1 (SEQ ID NO:27) and Skp1 were members of the same pathway, we tested whether Nannochloropsis SGT1 was capable of binding to Nannochloropsis Skp1 by Y2H. Two different Skp1 proteins were identified in Nannochloropsis, SKP1-8611 (polynucleotide SEQ ID NO:9 and polypeptide SEQ ID NO:28) and Skp1-7479 (SEQ ID NO:29 encoded at N. gaditana genome locus Naga_100005 g56, Genbank Accession AZIL01000936). Protein coding sequences were amplified using sequence specific primers for SGT1 (SEQ ID NO:30 and SEQ ID NO:31), SKP-8611 (SEQ ID NO:32 and SEQ ID NO:33), and SKP-7479 (SEQ ID NO:34 and SEQ ID NO:35) and cloned into the prey and bait vectors as described above.

[2] = target: T2, Skp1-7479 (Nannochloropsis Skp1 …); assay: direct yeast two-hybrid assay
Excerpt: as §1

[3] = target: B1; assay: yeast two-hybrid screen, CRD1-117 bait against Nannochloropsis cDNA prey library; growth and blue color on selective media
Protocol: The prey library was screened for by mating of the library-containing (prey) strain with each individual bait strain (i.e., a strain expressing CRD1-117) according to the Matchmaker™ Gold Yeast Two-Hybrid System User Manual (Clontech). […] Based on these numbers, it is estimated that more than 10 million interactions were tested.
After subtraction of false positives from the other domain hits, one hit remained which was unique to this domain: the gene encoding SGT1 (SEQ ID NO:27) encoded at N. gaditana genome locus Naga_100120 g12; Genbank Accession AZIL01000354.1. This gene is commonly referred to as “suppressor of G2 allele of skp1” because it was discovered in a genetic suppressor screen aimed at suppressing skp1-4, a mutant with defects in yeast kinetochore function (Hieter et al. 1999 Nature 402:362-363). SGT1 is an essential component of the yeast kinetochore assembly pathway and has been associated to a number of different biological roles in different organisms. Furthermore, mammalian SGT1 is known to interact with an Hsp90 chaperone and melusin, the human homolog of CHORD-3266. Similarly, the Arabidopsis CHORD-3266 homolog, RAR1, is also known to bind Arabidopsis SGT1 (Takahashi et al. (2003) PNAS USA 100:11777-11782). […]

Row | Binder | binding result [1] | binding result [2] | binding result [3]
1 | B1 | binds | binds | 
2 | B2 |  |  | binds
